Patent publication US20170224778A1, “COMPOSITIONS AND METHODS THAT TARGET REGULATION OF BREATHING” (The Board of Trustees of the Leland Stanford Junior …, priority 2016, published 2017)

Columns and labels:
[1] = molecular target: gastrin-releasing peptide receptor (GRPR) on rat preBotC neurons (rat) (UniProt P52500)
[2] = molecular target: neuromedin B receptor (NMBR) on rat preBotC neurons (rat) (UniProt P24053)
[3] = molecular target: gastrin-releasing peptide receptor (GRPR) on mouse preBotC neurons (mouse) (UniProt P21729)
[4] = molecular target: neuromedin B receptor (NMBR) on rat preBotC neurons (rat) (UniProt P24053); remark: listed apart in the source
[5] = molecular target: gastrin-releasing peptide receptor (GRPR) on rat preBotC neurons (rat) (UniProt P52500); remark: listed apart in the source
[6] = molecular target: neuromedin B receptor (NMBR) on rat preBotC neurons (rat) (UniProt P24053); remark: listed apart in the source
[7] = molecular target: gastrin-releasing peptide receptor (GRPR) on rat preBotC neurons (rat) (UniProt P52500); remark: listed apart in the source
NMBR [8] = molecular target: T1, NMBR (Mus musculus, UniProt O54799); assay: Doublets (in vitro sigh signature) in explanted preBötC brain slices, NMB effect; assay type: cell-based; conditions: for doublet frequency increase: neonatal mouse preBötC slices
T1 construct: from tissue; host or cells: 550-μm transverse medullary slices with the preBötC, neonatal C57BL/6 mice (P0-5)
T1 sequence (O54799 1-390): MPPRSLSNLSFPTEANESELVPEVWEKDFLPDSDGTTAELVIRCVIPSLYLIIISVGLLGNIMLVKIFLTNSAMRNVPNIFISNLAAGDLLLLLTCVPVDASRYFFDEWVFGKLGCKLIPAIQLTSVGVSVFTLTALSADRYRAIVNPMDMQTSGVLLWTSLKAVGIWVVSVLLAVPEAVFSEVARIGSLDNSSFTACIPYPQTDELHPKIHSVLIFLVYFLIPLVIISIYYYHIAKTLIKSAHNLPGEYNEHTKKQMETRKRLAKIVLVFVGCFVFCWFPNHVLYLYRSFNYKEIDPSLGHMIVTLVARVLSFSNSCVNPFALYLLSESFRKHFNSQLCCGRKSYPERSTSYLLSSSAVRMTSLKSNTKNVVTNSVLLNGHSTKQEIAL
Experimental: In vitro slice preparation, recording, and analysis. Rhythmic 550-μm-thick transverse medullary slices containing the preBötC and XII nerve from neonatal C57BL/6 mice (P0-5) were prepared as described previously (Kam et al., 2013). The medullary slice was cut in artificial cerebrospinal fluid (ACSF) containing (in mM): 124 NaCl, 3 KCl, 1.5 CaCl2, 1 MgSO4, 25 NaHCO3, 0.5 NaH2PO4, and 30 D-glucose, equilibrated with 95% O2 and 5% CO2 (4° C., pH=7.4). For recording, extracellular K+ was raised to 9 mM to replace excitatory afferent drive lost in the cutting process. Slices were perfused at 27° C. and 4 ml/min and allowed to equilibrate for 30 minutes. Respiratory activity reflecting suprathreshold action potential (AP) firing from populations of neurons was recorded as XII bursts from either XII nerve roots and as population activity directly from the preBötC using suction electrodes and a MultiClamp 700A or 700B (Molecular Devices, Sunnyvale, Calif., USA), filtered at 2-4 kHz and digitized at 10 kHz. Digitized data were analyzed off-line using custom procedures written for IgorPro (Wavemetrics, Portland, Oreg., USA). Activity was full-wave rectified and digitally integrated with a Paynter filter with a time constant of 20 ms with either custom built electronics or using custom procedures in MATLAB (Mathworks, Natick, Mass., USA). Burst detection and analysis of respiratory-related activity recorded in full-wave rectified XII output or preBötC population recordings were performed using custom software written in IgorPro. Burst parameters were normalized to the mode of the data in the baseline condition. Although there are several proposed definitions of sighs in slice preparations, here we used “doublets” (double-peaked bursts) as the in vitro signature of sighs because, in our preparations, doublets detected both in preBötC neural population activity measurements and cranial nerve XII output recordings shared the increased inspiratory and expiratory duration of sighs. […] All doublets were verified by visual inspection to exclude multipeaked bursts and two bursts that were too far apart. Measured doublet intervals were converted to a calculated per hour doublet rate.

NMBR [9] = molecular target: T2, NMBR (Rattus norvegicus, UniProt P24053); assay: Sighing and breathing of urethane-anesthetized rats after bilateral preBötC injection (NMB pathway); assay type: in vivo; conditions: 3 μM into preBötC
T2 construct: from tissue; host or cells: preBötC of the ventral medulla of living anesthetized Sprague Dawley rats
T2 sequence (P24053 1-390): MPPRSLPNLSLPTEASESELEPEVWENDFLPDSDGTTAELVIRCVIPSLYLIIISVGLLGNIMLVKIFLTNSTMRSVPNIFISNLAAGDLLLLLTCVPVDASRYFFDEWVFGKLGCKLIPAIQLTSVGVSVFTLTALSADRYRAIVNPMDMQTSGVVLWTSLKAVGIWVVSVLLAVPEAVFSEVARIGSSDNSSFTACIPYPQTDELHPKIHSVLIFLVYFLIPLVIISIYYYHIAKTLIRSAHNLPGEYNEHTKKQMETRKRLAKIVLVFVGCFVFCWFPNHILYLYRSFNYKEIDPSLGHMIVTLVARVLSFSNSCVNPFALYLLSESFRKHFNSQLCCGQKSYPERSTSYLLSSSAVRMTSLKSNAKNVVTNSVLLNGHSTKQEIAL
Experimental: Sigh monitoring and analysis. For awake animals, individual animals were placed in a whole body plethysmography chamber (Buxco) at room temperature (22° C.) in 21% O2 (for normoxia) or 8% O2 (for hypoxic challenge) balanced with N2. Sighs were identified in plethysmography traces by the characteristic biphasic ramp, the augmented flow in the second phase of the inspiratory effort and the prolongation of expiratory time following the event. Sighs were also confirmed by visual monitoring of breathing behavior. Given the high amplitude and distinctive waveform of sighs relative to standard eupneic breaths, sighs were unambiguously identified by both visual and computer-assisted scoring; no difference was detected in direct comparisons between methods or observers so visual scoring was used. Female 8 week old mice (Nmbr^−/−, Grpr^−/−, or C57BL/6 as wild type control) were allowed to acclimate for 10 minutes in the chamber, and then the first fifteen recorded sighs were used to calculate the sigh rate. […] Rats were allowed to acclimate in the chamber for ˜1 hr, and then baseline sigh rate and respiratory frequency were calculated for the next 2 hrs. For hypoxic (8% O2) challenge, analysis was continued for 30 minutes under the hypoxic condition. For anesthetized rats, the trachea was cannulated and connected to a pneumotachograph (GM Instruments) to record airflow. A flow calibration was performed after every experiment along with a calculation of tidal volume (VT) by digital integration. To monitor diaphragm activity, wire electrodes (Cooner Wre) were implanted into the diaphragm and electromyogram (EMG) signal sampled at 2 kHz (Powerlab 16SP; AD Instruments). Signal was rectified and digitally integrated (time constant of 0.1) to obtain a moving average using LabChart Pro 8 (AD Instruments) and Igor Pro 6 (Data Matrix) software. Sighs were identified in the airflow measurements as above and validated by double peaks in the EMG recordings.
PreBötC injection of NMB and GRP agonists and antagonists. […]

[10] = molecular target: neuromedin B receptor (NMBR) on mouse preBotC neurons (mouse) (UniProt O54799)

**Q.** GRPR antagonist RC3095 was tested. Which basal sigh rate after bilateral preBotC injection in anesthetized rats [1] did it give?
**A.** 50%

**Q.** For NMBR antagonist BIM23042, which basal sigh rate after bilateral preBotC injection in anesthetized rats [2] is on record?
**A.** 50%

**Q.** For “gastrin releasing peptide (GRP) neuropeptide”, which doublets (in vitro signature of a sigh) in mouse preBotC slices [3] is on record?
**A.** 1.7 fold

**Q.** With “bombesin-saporin (saporin conjugated with bombesin)” as the substance, how does the basal sigh rate after ablation of receptor-expressing preBotC neurons in rats [4] read?
**A.** 95%

**Q.** And the basal sigh rate after ablation of receptor-expressing preBotC neurons in rats [5]?
**A.** 95%

**Q.** And the hypoxia-induced sigh rate (8% O2) five days after injection in rats [6]?
**A.** 5.1 h⁻¹

**Q.** What about the hypoxia-induced sigh rate (8% O2) five days after injection in rats [7] of the same substance?
**A.** 5.1 h⁻¹

**Q.** Which basal and hypoxia-induced sigh rate in control rats [6] does the source give for “saporin conjugated with a non-targeted peptide (blank SAP)” here?
**A.** 140 h⁻¹

**Q.** And the basal and hypoxia-induced sigh rate in control rats [7]?
**A.** 140 h⁻¹

**Q.** With neuromedin B [NMB] as the substance, how does the doublet frequency increase (NMBR [8]; 10 nM, p=0.005, n=7) read?
**A.** 1.7 fold

**Q.** What about the doublet frequency increase (NMBR [8]; 30 nM, p=0.003, n=7) of the same substance?
**A.** 2 fold

**Q.** What about the “overall frequency of bursts and doublets together” value (NMBR [8]; NMB on preBötC slices, p=0.2, n=7) of the same substance?
**A.** unchanged

**Q.** What about the “fraction of total events that are doublets” value (NMBR [8]; preBötC slice, p<0.05, n=7) of the same substance?
**A.** increasing

**Q.** What about the “interval following a doublet” value (NMBR [8]; preBötC slice, p<0.05, n=7) of the same substance?
**A.** decreasing

**Q.** And the “change in respiratory rate (frequency, f)” value (NMBR [9]; bilateral NMB injection 100 nl, anesthetized rat)?
**A.** little change

**Q.** What about the “sighing increased (fold)” value (NMBR [9]; bilateral microinjection 100 nl, anesthetized adult rats, n=5) of the same substance?
**A.** 6-17 fold

**Q.** And the “effect on sighing persisted after injection” value (NMBR [9]; bilateral microinjection 100 nl, effect peaked several minutes after injection)?
**A.** 10 to 15 min

**Q.** With neuromedin B (NMB) neuropeptide as the substance, how does the doublet frequency (in vitro signature of a sigh) in mouse preBotC slices [10] read?
**A.** 2 fold
